The series concerns the target T1, CasEnd-22 (synthetic construct).
T1 chain: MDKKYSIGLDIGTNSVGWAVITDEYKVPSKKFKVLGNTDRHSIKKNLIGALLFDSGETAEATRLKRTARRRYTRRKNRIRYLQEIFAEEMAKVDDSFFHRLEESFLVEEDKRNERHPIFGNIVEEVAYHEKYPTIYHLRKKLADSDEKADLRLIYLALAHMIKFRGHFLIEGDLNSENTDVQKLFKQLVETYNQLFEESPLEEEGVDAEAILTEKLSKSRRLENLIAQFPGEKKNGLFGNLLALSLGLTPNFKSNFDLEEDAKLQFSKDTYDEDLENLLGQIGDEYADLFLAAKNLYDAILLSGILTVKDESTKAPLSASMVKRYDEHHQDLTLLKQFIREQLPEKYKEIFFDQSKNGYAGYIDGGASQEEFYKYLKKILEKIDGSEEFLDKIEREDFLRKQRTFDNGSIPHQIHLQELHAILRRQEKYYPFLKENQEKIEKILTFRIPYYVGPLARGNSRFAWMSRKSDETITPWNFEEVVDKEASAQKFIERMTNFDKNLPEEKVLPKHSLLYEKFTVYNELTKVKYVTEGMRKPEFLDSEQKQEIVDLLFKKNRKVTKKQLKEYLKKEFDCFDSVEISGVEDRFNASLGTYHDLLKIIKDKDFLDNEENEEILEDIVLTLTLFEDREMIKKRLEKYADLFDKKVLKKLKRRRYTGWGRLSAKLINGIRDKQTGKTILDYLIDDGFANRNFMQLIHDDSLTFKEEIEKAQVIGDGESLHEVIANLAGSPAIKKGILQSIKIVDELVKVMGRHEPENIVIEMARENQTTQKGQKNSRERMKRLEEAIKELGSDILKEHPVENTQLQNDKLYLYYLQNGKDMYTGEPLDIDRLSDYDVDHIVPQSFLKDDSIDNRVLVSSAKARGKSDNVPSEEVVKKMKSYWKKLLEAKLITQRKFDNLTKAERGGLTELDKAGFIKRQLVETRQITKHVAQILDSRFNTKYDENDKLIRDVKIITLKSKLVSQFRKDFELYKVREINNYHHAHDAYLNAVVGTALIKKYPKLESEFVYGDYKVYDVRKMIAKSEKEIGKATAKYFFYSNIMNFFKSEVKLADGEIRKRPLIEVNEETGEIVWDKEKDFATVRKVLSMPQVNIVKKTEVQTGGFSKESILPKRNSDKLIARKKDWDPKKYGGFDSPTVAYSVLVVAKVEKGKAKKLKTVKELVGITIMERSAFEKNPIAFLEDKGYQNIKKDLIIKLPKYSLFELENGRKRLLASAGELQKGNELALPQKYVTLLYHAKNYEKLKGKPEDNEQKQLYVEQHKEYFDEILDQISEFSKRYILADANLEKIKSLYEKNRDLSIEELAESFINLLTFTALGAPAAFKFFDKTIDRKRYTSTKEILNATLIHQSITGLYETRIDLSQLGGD
The experiment in a line: cell_activity; +++; K562, second nick guide SEQ 380; PAM not stated. The protocol:
The ability of the candidate endonucleases, including endonucleases 1-38 (CasEnds 1-38) (set forth in Table 1 and SEQ ID NOS: 1-38, respectively), to mediate target nucleic acid editing in cells was assessed by amplicon sequencing of the endogenous hemoglobin subunit beta (eHBB) gene, wherein the percent of amplicons displaying the intended edit is measured. The editing system is comprised of a template RNA (designed to introduce the Single Nucleotide Polymorphism), a second nick guide RNA, and a fusion protein consisting of retroviral reverse transcriptase and the individual subject Cas endonuclease.
Briefly, 250 ng of plasmid DNA encoding the subject fusion protein (containing one of the subject CasEnds), 250 ng each of plasmid DNA encoding the template RNA and the second nick guide RNA were added to 15 μL Lonza SF buffer containing 250,000 K562 cells. Nucleofection was mediated utilizing program FF-120-DA on a Lonza nucleofector. The day of nucleofection was marked as day 0. At day 3, the cells were harvested and subjected to lysis buffer treatment overnight. Genomic DNA was extracted and used for targeted amplicon sequencing to evaluate the performance of each Cas endonucleases based on their percent edit efficiencies.

B1: HBB template RNA ; HBB protospacer (ssRNA ; dsDNA)
RNA: CAUGGUGCACCUGACUCCUGGUUUUAGAGCUAGAAAUAGCAAGUUAAAAUAAGGCUAGUCCGUUAUCAACUUGAAAAAGUGGCACCGAGUCGGUGCACGGCAGACUUCUCUGCCGGAGUCAGGUGC
DNA 1: CATGGTGCACCTGACTCCTG
DNA 2: CAGGAGTCAGGTGCACCATG
Consider B1, for which the activity is ≥ 100 % of reference.

The values above are taken from US20250092426, “CAS ENDONUCLEASES AND RELATED METHODS” (Flagship Pioneering Innovations VII, LLC, published 2025).
